From patent US20190055547A1

Experiments:
Pak1 [1] = target: Pak1 (UniProt Q13153); assay: competitive phage ELISA IC50 compared with KD (~IC50) of primary-screen monobodies
Pak1 [2] = target: Pak1 (UniProt Q13153); assay: competitive phage ELISA: biotinylated Pak1 immobilised, varying non-biotinylated Pak1 mixed with phage displaying D3

B1: Clone D3 (designed binder, not shown: large carriers; small tags and cut ends)
chain: EQKLISEEDLMAVSDVPRKLEVVAATPTSLLISWDAPWKKTRYYRITYGETGGNSPVQEFTVPGSKSTATISGLKPGVDYTITVYAVTASWPWSKPISINYRTSGGGGSGGGGSGGGGSGGGGSGGGGSDYKDDDDKLASAMAVSDVPRKLEVVAATPTSLLISWDAPSRHIYYYRITYGETGGNSPVQEFTVPGSKSTATISGLKPGVDYTITVYAVTDLYSNSKPISINYRTS
Pak1 [1]
  fold improvement over the binding of the monobodies from the primary screen: 1000 fold
Pak1 [2]
  IC50: 1.5 nM
